Reference: patent US9091695B2, “Methods and systems for quantification of peptides and other analytes” (Laboratory Corporation of America Holdings, priority 2007, dated 2015)

Key:
[1] = Stock solution / internal standard solution storage stability; assay type: physicochemical
[2] = Autosampler stability of calibrators and quality control samples; assay type: physicochemical; details: stored in the autosampler at 10° C.
Procedure: The autosampler stability was evaluated using calibrators and quality control samples (LLOQ, mid-range and ULOQ using both pooled plasma and blank plasma calibrators). Duplicate curves were included with the batch. The first calibration curve was injected, then after 24 hours, the remaining quality control and calibration curve samples were injected. Both calibration curves were used to ascertain accuracy of pooled patient and blank plasma controls. The acceptability criteria is defined such that the standard curve back-fit data should be 80-120% at LLOQ, 85-115% at other concentrations of expected curve values. Mean accuracy of each quality control sample should be ≦±20% at the LLOQ and ≦±15% at all other levels.

## [(U-23C9, 15N)-Tyr5], [(U-23C6, 15N)-Leu7], [(U-19C5, 15N)-Pro9]-Gonadorelin [GnRH internal standard]
[1]; refrigerated at 4° C.
  Time internal standard solution is stable: up to 51 days

## pGlu-His-Trp-Ser-Tyr-Gly-Leu-Arg-Pro-Gly-NH2 [GnRH]
[1]; frozen at −70° C.
  Time stock solution is stable: up to 376 days
[2]
  Time stable in the autosampler: 24 h
